From the supplement of paper PMC10567573

B1: DLC1 (parent)
chain: RDAIEALCRRLNTLNKCAVMKLEI
B2: ZNF511 (parent)
chain: HLYPADFRFDKPKKSRSPASAEAP

Variants of: B1
Experiment: protein stability index of a GFP-peptide fusion (GPS, HEK-293T) (PSI 1-6); higher = more stable
Details: c terminus: a fixed tail appended
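Also: lentivirally expressed fusions sorted by FACS into six bins by GFP to DsRed ratio, PSI derived from sequencing read proportions per bin multiplied by bin number.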

Row | Variant | protein stability index
1 | RDAIEALCRRLNTLNKCAVMKSEI [L22S] | 1.45
2 | RDAIEALCRRLNTLNKCAVMKTEI [L22T] | 2.54
3 | RDAIEALCRRLNTLNKCAVMKYEI [L22Y] | 2.29
4 | RDAIEALCRRLNTLNKCAVMKIEI [L22I] | 1.89
5 | RDAIEAYCRRLNTLNKCAVMKLEI [L7Y] | 1.81
6 | RDAIEAKCRRLNTLNKCAVMKLEI [L7K] | 2.16
7 | RDAIEALCRRLNTDNKCAVMKLEI [L14D] | 1.37
8 | RDAIEALCRRLNTENKCAVMKLEI [L14E] | 2.98
9 | RDGIEALCRRLNTLNKCAVMKLEI [A3G] | 2.33
10 | RDNIEALCRRLNTLNKCAVMKLEI [A3N] | 3.61
11 | RDYIEALCRRLNTLNKCAVMKLEI [A3Y] | 2.37
12 | RDAIEALCRFLNTLNKCAVMKLEI [R10F] | 1.86
13 | RDAIEALCRKLNTLNKCAVMKLEI [R10K] | 3.44
14 | RDAIEALCRSLNTLNKCAVMKLEI [R10S] | 3.43
15 | RDAIEALCRTLNTLNKCAVMKLEI [R10T] | 3.17
16 | RDAIEKLCRRLNTLNKCAVMKLEI [A6K] | 2.82
17 | RDAIEMLCRRLNTLNKCAVMKLEI [A6M] | 2.97
18 | RDAIEALCRRLYTLNKCAVMKLEI [N12Y] | 3.36
19 | RDAIEALCRRLATLNKCAVMKLEI [N12A] | 1.09
20 | RDAIEALCRRNNTLNKCAVMKLEI [L11N] | 2.33
21 | RDAILALCRRLNTLNKCAVMKLEI [E5L] | 3.21

Row | Variant | protein stability index
22 | RDAIWALCRRLNTLNKCAVMKLEI [E5W] | 2.13
23 | RDAIEALCRRLNTLNKCAVCKLEI [M20C] | 2.27
24 | RDAIEALCRRLNTLNKCAVPKLEI [M20P] | 2.02
25 | RDAIEALCRRLNTLNKCAVEKLEI [M20E] | 1.49
26 | RDAIEALCRRLNTLHKCAVMKLEI [N15H] | 2.39
27 | RDAIEALPRRLNTLNKCAVMKLEI [C8P] | 2.04
28 | RDAIEALDRRLNTLNKCAVMKLEI [C8D] | 2
29 | RDAIEALCRRLNTLNKCAVMLLEI [K21L] | 2.53
30 | RQAIEALCRRLNTLNKCAVMKLEI [D2Q] | 2.74
31 | RDAMEALCRRLNTLNKCAVMKLEI [I4M] | 2.53
32 | RDAAEALCRRLNTLNKCAVMKLEI [I4A] | 1.76
33 | RDAIEALCRRLNTLNKCAVMKLDI [E23D] | 1.52
34 | RDAIEALCRRLNTLNKCAVMKLII [E23I] | 1.47
35 | RDAIEALCRRLNTLNKCLVMKLEI [A18L] | 2.58
36 | RDAIEALCRRLNTLNKCAVMKLEH [I24H] | 1.73
37 | GDAIEALCRRLNTLNKCAVMKLEI [R1G] | 2.35
38 | IDAIEALCRRLNTLNKCAVMKLEI [R1I] | 2.9
39 | RDAIEALCRRLNTLNKCAQMKLEI [V19Q] | 1.84
40 | RDAIEALCRRLNTLNKCAYMKLEI [V19Y] | 2.76
41 | RDAIEALCRRLNTLNKCAFMKLEI [V19F] | 1.62

Variants of: B2
Experiment: as above
Details: c terminus: a fixed tail appended

Row | Variant | protein stability index
42 | HLYPADFRFDKPKKSRSIASAEAP [P18I] | 2.96
43 | HLYPADFRFDKPKKSRSVASAEAP [P18V] | 2.33
44 | HLYPADFRFDKPKKSRSGASAEAP [P18G] | 2.58
45 | HLYPADFRFDKPKKSRSMASAEAP [P18M] | 2.78
46 | HLYPADFRFDKPKKSRSKASAEAP [P18K] | 3.08
47 | HLYPADFRFDKPKKSRSYASAEAP [P18Y] | 2.34
48 | HLYPADFRFDKPKKSRSTASAEAP [P18T] | 3.52
49 | HLYPADFRFDKPKKSRSQASAEAP [P18Q] | 2.56
50 | HLYPADFRFDKPKKSRSWASAEAP [P18W] | 2.51
51 | HLYPADFRFDKPKKSRSHASAEAP [P18H] | 2.74
52 | HLYPADFRFDKPKKSRSFASAEAP [P18F] | 2.3
53 | HLYPADFRFDKPKKSRSDASAEAP [P18D] | 3.09
54 | HLYPADFRFDKPKKSRSSASAEAP [P18S] | 2.97
55 | HLYPADFRFDKPKKSRSEASAEAP [P18E] | 2.74
56 | HLYPADFRFDKPKKSRSNASAEAP [P18N] | 2.34
57 | HLYPADFRFDKPKKSRSLASAEAP [P18L] | 2.73
58 | HLYPADFRFDKPKKSRSRASAEAP [P18R] | 2.79
59 | HLYPADFRFDKPKKSRSCASAEAP [P18C] | 2.97
60 | HLYPADFRFDKPKKSRSAASAEAP [P18A] | 2.22
61 | HLYPADFRFDKPKKSRSPASAEAI [P24I] | 2.61
62 | HLYPADFRFDKPKKSRSPASAEAM [P24M] | 2.53
63 | HLYPADFRFDKPKKSRSPASAEAF [P24F] | 2.94
64 | HLYPADFRFDKPKKSRSPASAEAW [P24W] | 2.14
65 | HLYPADFRFDKPKKSRSPASAEAY [P24Y] | 2.69
66 | HLYPADFRFDKPKKSRSPASAEAV [P24V] | 2.98
67 | HLYPADFRFDKPKKSRSPASAEAE [P24E] | 2.6
68 | HLYPADFRFDKPKKSRSPASAEAN [P24N] | 3.09

Row | Variant | protein stability index
69 | HLYPADFRFDKPKKSRSPASAEAH [P24H] | 2.87
70 | HLYPADFRFDKPKKSRSPASAEAS [P24S] | 3.62
71 | HLYPADFRFDKPKKSRSPASAEAC [P24C] | 2.88
72 | HLYPADFRFDKPKKSRSPASAEAT [P24T] | 2.71
73 | HLYPADFRFDKPKKSRSPASAEAA [P24A] | 3.32
74 | HLYPADFRFDKPKKSRSPASAEAG [P24G] | 2.42
75 | HLYPADFRFDKPKKSRSPASAEAD [P24D] | 3.44
76 | HLYPADFRFDKPKKSRSPASAEAL [P24L] | 2.92
77 | HLYPADFRFDKPKKSRSPASAEAQ [P24Q] | 2.6
78 | HLYPADFRFDKPKKSRSPASAEAK [P24K] | 2.97
79 | HLYPADFRFDKPKKSRSPASAEAR [P24R] | 2.39
80 | HLYPADFRFDKPKKSRSPASAEVP [A23V] | 2.73
81 | HLYPADFRFDKPKKSRSPASAEQP [A23Q] | 3.06
82 | HLYPADFRFDKPKKSRSPASAETP [A23T] | 2.72
83 | HLYPADFRFDKPKKSRSPASAEFP [A23F] | 2.76
84 | HLYPADFRFDKPKKSRSPASAEYP [A23Y] | 2.63
85 | HLYPADFRFDKPKKSRSPASAECP [A23C] | 2.73
86 | HLYPADFRFDKPKKSRSPASAEHP [A23H] | 3.13
87 | HLYPADFRFDKPKKSRSPASAEKP [A23K] | 3.19
88 | HLYPADFRFDKPKKSRSPASAEEP [A23E] | 2.88
89 | HLYPADFRFDKPKKSRSPASAEIP [A23I] | 2.69
90 | HLYPADFRFDKPKKSRSPASAENP [A23N] | 3.1
91 | HLYPADFRFDKPKKSRSPASAERP [A23R] | 2.8
92 | HLYPADFRFDKPKKSRSPASAESP [A23S] | 2.86
93 | HLYPADFRFDKPKKSRSPASAELP [A23L] | 2.88
94 | HLYPADFRFDKPKKSRSPASAEDP [A23D] | 3.24
